Results reported in patent US20250122277A1 (Novartis, published 2025).

Assays:
[1] = target: T1, rec cynomolgous monkey IL-17 (cynomolgous monkey); experiment: SPR (BIAcore 2000), mean (printed n = 10)
Excerpt: (§1) Determination of kinetic binding parameters and levels of crossreactivity are done by surface plasmon resonance measurements using the optical biosensor BIAcore® 2000 (BIAcore AB, Upsalla, Sweden, see Lit. HS 1,2 for details). This technology allows the label-free determination the microscopic rate constants for binding (kₒₙ) and dissociation (koff) of a ligand to a receptor. It is therefore especially suited for characterizing the antibody-antigen interactions. […] Covalent binding of Fcγ capture antibody is done with the ‘Amine coupling kit’ provided by BIAcore (BIAcore, Cat. No. BR-1000-50). […] As a guideline, 1000 RUs correspond to a mass transfer of 1 ng/mm². […] The results are compared to the protocol described in Table 9 (see below).
(§2) Two independent runs testing 6 IL-17 concentrations in each run are performed. Concentrations for human IL-17 are 2, 4, 8, 12, 16, 20 nM and 10, 20, 30, 40, 50, 60 nM for all other species. Complete data analysis yields n=12 individual measurements for each IL-17 species. The KD as well as SEM is reported.

[2] = target: T1, rec cynomolgous monkey IL-17; experiment: SPR (BIAcore 2000), 25 nM IL-17, run 1
Excerpt: as §1
(§3) Two independent runs testing 6 IL-17 concentrations in each run are performed. […] Complete data analysis yields n=12 individual measurements for each IL-17 species. The KD as well as SEM is reported.

[3] = target: T2, rec rhesus monkey IL-17 (rhesus monkey, UniProt F6T3G5 24-155); experiment: SPR (BIAcore 2000), 10 nM IL-17, run 1
T2 sequence: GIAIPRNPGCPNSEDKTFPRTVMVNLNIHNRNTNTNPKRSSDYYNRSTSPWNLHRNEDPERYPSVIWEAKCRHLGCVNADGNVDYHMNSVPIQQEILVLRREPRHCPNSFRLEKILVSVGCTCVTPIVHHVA
Excerpt: as §1, §2

[4] = target: T3, rec marmoset IL-17 (marmoset, UniProt A0ACM8QD00 24-153); experiment: SPR (BIAcore 2000), 10 nM IL-17, run 1
T3 sequence: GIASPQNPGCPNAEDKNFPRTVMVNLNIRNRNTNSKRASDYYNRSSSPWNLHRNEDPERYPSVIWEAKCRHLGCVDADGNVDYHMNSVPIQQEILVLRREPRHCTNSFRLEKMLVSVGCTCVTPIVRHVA
Excerpt: as §1, §2

[5] = target: T1, rec cynomolgous monkey IL-17; experiment: SPR (BIAcore 2000), 10 nM IL-17, run 1
Excerpt: as §1, §2

[6] = target: T2, rec rhesus monkey IL-17; experiment: SPR (BIAcore 2000), 10 nM IL-17, run 2
Excerpt: as §1, §2

[7] = target: T3, rec marmoset IL-17; experiment: SPR (BIAcore 2000), 10 nM IL-17, run 2
Excerpt: as §1, §2

[8] = target: T1, rec cynomolgous monkey IL-17; experiment: SPR (BIAcore 2000), 10 nM IL-17, run 2
Excerpt: as §1, §2

[9] = target: T2, rec rhesus monkey IL-17; experiment: SPR (BIAcore 2000), 40 nM IL-17, run 2
Excerpt: as §1, §2

[10] = target: T3, rec marmoset IL-17; experiment: SPR (BIAcore 2000), 40 nM IL-17, run 2
Excerpt: as §1, §2

[11] = target: T3, rec marmoset IL-17; experiment: SPR (BIAcore 2000), mean n = 10
Excerpt: as §1, §2

[12] = target: T2, rec rhesus monkey IL-17; experiment: SPR (BIAcore 2000), 60 nM IL-17, run 1
Excerpt: as §1, §2

[13] = target: T3, rec marmoset IL-17; experiment: SPR (BIAcore 2000), 50 nM IL-17, run 2
Excerpt: as §1, §2

[14] = target: T2, rec rhesus monkey IL-17; experiment: SPR (BIAcore 2000), mean of run 1 + 2
Excerpt: as §1, §2

[15] = target: T1, rec cynomolgous monkey IL-17; experiment: SPR (BIAcore 2000), mean of run 1 + 2
Excerpt: as §1, §2

[16] = target: T1, rec cynomolgous monkey IL-17; experiment: SPR (BIAcore 2000), 5 nM IL-17, run 2
Excerpt: as §1, §3

[17] = target: T2, rec rhesus monkey IL-17; experiment: SPR (BIAcore 2000), 30 nM IL-17, run 2
Excerpt: as §1, §2

[18] = target: T3, rec marmoset IL-17; experiment: SPR (BIAcore 2000), 30 nM IL-17, run 2
Excerpt: as §1, §2

[19] = target: T1, rec cynomolgous monkey IL-17; experiment: SPR (BIAcore 2000), 30 nM IL-17, run 2
Excerpt: as §1, §2

[20] = target: T2, rec rhesus monkey IL-17; experiment: SPR (BIAcore 2000), mean n = 12
Excerpt: as §1, §2

[21] = target: T1, rec cynomolgous monkey IL-17; experiment: SPR (BIAcore 2000), 5 nM IL-17, run 1
Excerpt: as §1, §3

[22] = target: T2, rec rhesus monkey IL-17; experiment: SPR (BIAcore 2000), 20 nM IL-17, run 2
Excerpt: as §1, §2

[23] = target: T3, rec marmoset IL-17; experiment: SPR (BIAcore 2000), 20 nM IL-17, run 2
Excerpt: as §1, §2

[24] = target: T1, rec cynomolgous monkey IL-17; experiment: SPR (BIAcore 2000), 20 nM IL-17, run 2
Excerpt: as §1, §2

[25] = target: T2, rec rhesus monkey IL-17; experiment: SPR (BIAcore 2000), 30 nM IL-17, run 1
Excerpt: as §1, §2

[26] = target: T3, rec marmoset IL-17; experiment: SPR (BIAcore 2000), 30 nM IL-17, run 1
Excerpt: as §1, §2

[27] = target: T1, rec cynomolgous monkey IL-17; experiment: SPR (BIAcore 2000), 30 nM IL-17, run 1
Excerpt: as §1, §2

[28] = target: T2, rec rhesus monkey IL-17; experiment: SPR (BIAcore 2000), 40 nM IL-17, run 1
Excerpt: as §1, §2

[29] = target: T3, rec marmoset IL-17; experiment: SPR (BIAcore 2000), 40 nM IL-17, run 1
Excerpt: as §1, §2

[30] = target: T2, rec rhesus monkey IL-17; experiment: SPR (BIAcore 2000), 20 nM IL-17, run 1
Excerpt: as §1, §2

[31] = target: T3, rec marmoset IL-17; experiment: SPR (BIAcore 2000), 20 nM IL-17, run 1
Excerpt: as §1, §2

[32] = target: T1, rec cynomolgous monkey IL-17; experiment: SPR (BIAcore 2000), 20 nM IL-17, run 1
Excerpt: as §1, §2

[33] = target: T1, rec cynomolgous monkey IL-17; experiment: SPR (BIAcore 2000), 25 nM IL-17, run 2
Excerpt: as §1, §3

[34] = target: T1, rec cynomolgous monkey IL-17; experiment: SPR (BIAcore 2000), 15 nM IL-17, run 2
Excerpt: as §1, §3

[35] = target: T2, rec rhesus monkey IL-17; experiment: SPR (BIAcore 2000), 60 nM IL-17, run 2
Excerpt: as §1, §2

[36] = target: T2, rec rhesus monkey IL-17; experiment: SPR (BIAcore 2000), 50 nM IL-17, run 1
Excerpt: as §1, §2

[37] = target: T3, rec marmoset IL-17; experiment: SPR (BIAcore 2000), 50 nM IL-17, run 1
Excerpt: as §1, §2

B1: recombinant human AIN457 (batch KB03303A) (antibody, V domains shown)
VH: EVQLVESGGGLVQPGGSLRLSCAASGFTFSNYWMNWVRQAPGKGLEWVAAINQDGSEKYYVGSVKGRFTISRDNAKNSLYLQMNSLRVEDTAVYYCVRDYYDILTDYYIHYWYFDLWGRGTLVTVSS
VL: not shown
notes: same variable domains as m1; also called AIN457 (KB03303A); NVP-AIN457 (KB03303A)
Question: With B1 as the binder, how does the Kd [1] read?
Answer: Its Kd is 6 nM.

Question: And the Kd [2]?
Answer: Its Kd is 6.26 nM.

Question: What about the Kd [3] of the same binder?
Answer: Its Kd is 2.28 nM.

Question: And the Kd [4]?
Answer: Its Kd is 0.895 nM.

Question: What about the Kd [5] of the same binder?
Answer: Its Kd is 2.24 nM.

Question: What about the Kd [6] of the same binder?
Answer: The Kd was 7.04 nM.

Question: What about the Kd [7] of the same binder?
Answer: The Kd was 1.13 nM.

Question: What about the Kd [8] of the same binder?
Answer: The Kd was 6.9 nM.

Question: What about the Kd [9] of the same binder?
Answer: The Kd was 9.74 nM.

Question: And the Kd [10]?
Answer: Its Kd is 1.36 nM.

Question: And the Kd [11]?
Answer: The Kd was 1.21 nM.

Question: What about the Kd [12] of the same binder?
Answer: The Kd was 13.1 nM.

Question: And the Kd [13]?
Answer: The Kd was 1.67 nM.

Question: And the Kd [14]?
Answer: The Kd was 9 nM.

Question: What about the Kd [15] of the same binder?
Answer: The Kd was 6 nM.

Question: What about the Kd [16] of the same binder?
Answer: The Kd was 7.08 nM.

Question: And the Kd [17]?
Answer: Its Kd is 8.16 nM.

Question: What about the Kd [18] of the same binder?
Answer: Its Kd is 1.57 nM.

Question: And the Kd [19]?
Answer: The Kd was 8.32 nM.

Question: And the Kd [20]?
Answer: The Kd was 8.96 nM.

Question: What about the Kd [21] of the same binder?
Answer: The Kd was 1.1 nM.

Question: And the Kd [22]?
Answer: Its Kd is 5.93 nM.

Question: What about the Kd [23] of the same binder?
Answer: The Kd was 1.17 nM.

Question: What about the Kd [24] of the same binder?
Answer: Its Kd is 7.17 nM.

Question: What about the Kd [25] of the same binder?
Answer: Its Kd is 6.04 nM.

Question: And the Kd [26]?
Answer: Its Kd is 1.17 nM.

Question: And the Kd [27]?
Answer: The Kd was 7.89 nM.

Question: And the Kd [28]?
Answer: The Kd was 12.4 nM.

Question: What about the Kd [29] of the same binder?
Answer: The Kd was 1.17 nM.

Question: What about the Kd [30] of the same binder?
Answer: Its Kd is 7.34 nM.

Question: What about the Kd [31] of the same binder?
Answer: Its Kd is 0.782 nM.

Question: What about the Kd [32] of the same binder?
Answer: Its Kd is 4.75 nM.

Question: What about the Kd [33] of the same binder?
Answer: The Kd was 7.34 nM.

Question: What about the Kd [34] of the same binder?
Answer: The Kd was 7.41 nM.

Question: What about the Kd [35] of the same binder?
Answer: The Kd was 12.3 nM.

Question: What about the Kd [36] of the same binder?
Answer: Its Kd is 11.2 nM.

Question: And the Kd [37]?
Answer: The Kd was 1.21 nM.
